From patent US20260116921A1, “PEPTIDE INHIBITORS OF INTERLEUKIN-23 RECEPTOR AND THEIR USE TO TREAT INFLAMMATORY DISEASES” (priority 2018, published 2026)
Bridge positions count the residues as written; N and C are the ends. Square brackets hold non-standard residues; d marks the D form. Trp(7-Me) = Cc1cccc2c(C[C@H](N)C(=O)O)c[nH]c12; 2Nal = N[C@@H](Cc1ccc2ccccc2c1)C(=O)O; AEF = NCCOc1ccc(C[C@H](N)C(=O)O)cc1; Cit = NC(=O)NCCC[C@H](N)C(=O)O; Pen = CC(C)(S)[C@H](N)C(=O)O; αMeK = C[C@](N)(CCCCN)C(=O)O; βAla = NCCC(=O)O

T1: IL-23R (human, UniProt Q5VWK5 24-629)
T1 sequence (looked up): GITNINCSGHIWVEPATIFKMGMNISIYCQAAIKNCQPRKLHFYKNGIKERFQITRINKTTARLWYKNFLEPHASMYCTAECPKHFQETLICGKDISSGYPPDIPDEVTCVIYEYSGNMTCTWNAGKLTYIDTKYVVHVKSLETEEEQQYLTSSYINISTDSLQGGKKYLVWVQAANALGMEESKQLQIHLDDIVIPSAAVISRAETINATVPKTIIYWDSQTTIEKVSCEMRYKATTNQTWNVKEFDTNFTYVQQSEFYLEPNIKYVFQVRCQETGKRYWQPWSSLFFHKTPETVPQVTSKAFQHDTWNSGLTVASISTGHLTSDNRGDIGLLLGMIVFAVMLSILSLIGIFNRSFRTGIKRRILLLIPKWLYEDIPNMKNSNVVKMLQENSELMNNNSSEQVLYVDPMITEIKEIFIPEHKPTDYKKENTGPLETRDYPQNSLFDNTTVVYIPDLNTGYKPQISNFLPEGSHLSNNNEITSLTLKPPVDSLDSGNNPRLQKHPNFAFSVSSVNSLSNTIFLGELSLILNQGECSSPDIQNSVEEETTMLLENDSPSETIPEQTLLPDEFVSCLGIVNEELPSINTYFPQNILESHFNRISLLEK

B1: SEQ ID NO: 232 (peptide)
peptide: XNTXQXXXXKNX
modifications: Ac-[Pen]-NT-[W(1-Me)]-Q-[Pen]-Phe[4-(2-aminoethoxy)]-[2-Nal]-[a-MeLys]-[Lys(Ac)]-N-[bA]-NH2; Pen-Pen disulfide
B2: SEQ ID NO: 238 (peptide)
peptide: Ac-[Pen][Cit]T[Trp(7-Me)]Q[Pen][AEF][2Nal][αMeK]K(Ac)N[βAla]-NH2
modifications: disulfide 1-6
SMILES: CC(=O)NCCCC[C@H](NC(=O)[C@](C)(CCCCN)NC(=O)[C@H](Cc1ccc2ccccc2c1)NC(=O)[C@H](Cc1ccc(OCCN)cc1)NC(=O)[C@H]1NC(=O)[C@H](CCC(N)=O)NC(=O)[C@H](Cc2c[nH]c3c(C)cccc23)NC(=O)[C@H]([C@@H](C)O)NC(=O)[C@H](CCCNC(N)=O)NC(=O)[C@@H](NC(C)=O)C(C)(C)SSC1(C)C)C(=O)N[C@@H](CC(N)=O)C(=O)NCCC(N)=O
B3: SEQ ID NO: 207 (peptide)
peptide: XNTXQXXXXKAX
modifications: Ac-[Pen]-NT-[W(7-Me)]-Q-[Pen]-Phe[4-(2-aminoethoxy)]-[2-Nal]-[a-MeLeu]-[Lys(Ac)]-A-[bA]-NH2; Pen-Pen disulfide
B4: SEQ ID NO: 236 (peptide)
peptide: XNTXQXXXXXNX
modifications: Ac-[Pen]-NT-[W(7-Me)]-Q-[Pen]-Phe[4-(2-aminoethoxy)]-[2-Nal]-[a-MeLys]-[Aib]-N-[bA]-NH2; Pen-Pen disulfide
B5: SEQ ID NO: 202 (peptide)
peptide: XNTXQXXXXKNX
modifications: Ac-[Pen]-NT-[W(7-Me)]-Q-[Pen]-Phe[4-(2-aminoethoxy)]-[2-Nal]-[a-MeLys]-[Lys(Ac)]-N-[bA]-NH2; Pen-Pen disulfide
B6: SEQ ID NO: 214 (peptide)
peptide: XNTXQXXXXKHX
modifications: Ac-[Pen]-NT-[W(7-Me)]-Q-[Pen]-Phe[4-(2-aminoethoxy)]-[2-Nal]-[a-MeLeu]-[Lys(Ac)]-H-[bA]-NH2; Pen-Pen disulfide
B7: SEQ ID NO: 234 (peptide)
peptide: XNTXXXXXXKNX
modifications: Ac-[Pen]-NT-[W(7-Me)]-[a-MeLys]-[Pen]-Phe[4-(2-aminoethoxy)]-[2-Nal]-[a-MeLeu]-[Lys(Ac)]-N-[bA]-NH2; Pen-Pen disulfide
B8: SEQ ID NO: 208 (peptide)
peptide: XNTXQXXXXKLX
modifications: Ac-[Pen]-NT-[W(7-Me)]-Q-[Pen]-Phe[4-(2-aminoethoxy)]-[2-Nal]-[a-MeLeu]-[Lys(Ac)]-L-[bA]-NH2; Pen-Pen disulfide
B9: SEQ ID NO: 272 (peptide)
peptide: XNTXKXXXXKHX
modifications: Ac-[Pen]-N-T-[W(7-Me)]-[Lys(Ac)]-[Pen]-Phe[4-(2-aminoethoxy)]-[2-Nal]-[a-MeLys]-[Lys(Ac)]-H-[bA]-NH2; Pen-Pen disulfide
B10: SEQ ID NO: 239 (peptide)
peptide: XKTXQXXXXKNX
modifications: Ac-[Pen]-[Lys(Ac)]-T-[W(7-Me)]-Q-[Pen]-Phe[4-(2-aminoethoxy)]-[2-Nal]-[a-MeLys]-[Lys(Ac)]-N-[bA]-NH2; Pen-Pen disulfide
B11: SEQ ID NO: 226 (peptide)
peptide: XNTXQXXXXKXX
modifications: Ac-[Pen]-NT-[W(7-Me)]-Q-[Pen]-Phe[4-(2-aminoethoxy)]-[2-Nal]-[a-MeLeu]-[Lys(Ac)]-[bA]-[bA]-NH2; Pen-Pen disulfide
B12: SEQ ID NO: 271 (peptide)
peptide: XNTXKXXXXKSX
modifications: Ac-[Pen]-N-T-[W(7-Me)]-[Lys(Ac)]-[Pen]-Phe[4-(2-aminoethoxy)]-[2-Nal]-[a-MeLys]-[Lys(Ac)]-S-[bA]-NH2; Pen-Pen disulfide
B13: SEQ ID NO: 203 (peptide)
peptide: RXQTXQCXXXENX
modifications: Ac-[(D)Arg]-Abu-Q-T-[W(7-Me)]-Q-C-Phe[4-(2-aminoethoxy)]-[2-Nal]-[THP]-E-N-[bA]-NH2; Abu-Cys thioether
B14: SEQ ID NO: 221 (peptide)
peptide: XNTXQXXXXKSX
modifications: Ac-[Pen]-NT-[W(7-Me)]-Q-[Pen]-Phe[4-(2-aminoethoxy)]-[2-Nal]-[a-MeLeu]-[Lys(Ac)]-S-[bA]-NH2; Pen-Pen disulfide

biological target: T1, IL-23R; experiment: cell-based or functional assay

NK Cell Assay (nM) IC50, < 10 nM:
B1
B2
B3
B4
B5
B6
B7
B8
B9
B10
B11
B12
B13
B14
